Target: the molecule itself
Assay: cross-linking; 0.5 μM protein ± 0.05% glutaraldehyde, 5 min, ambient temperature; 30 mM HEPES pH 7.2, 50 mM potassium acetate; SDS-PAGE; control pretreated with 4% LDS

B1: Lis1 (S. cerevisiae Pac1) (natural protein, UniProt P39946 1-494, looked up)
chain: MTNWQQQLPLTDTQKNELDKSVLRYLNWNYKQTVRHEHAQDYESVRHAIVTLSGFLLQESVDRQEFISNNDTSNESMVDIDELLLPKKWNSIVRLQKKIIELEQNTETLVSQIKDLNTQVSELAQFKPTTSNGTSAHNVLKWIPRNLPSCLINVESSVTSVKLHPNLPIVFVATDHGKLYAFDLFNYTIPLASLQSHTKAITSMDVLFTNYTNSSKKNYLVIVTASKDLQIHVFKWVSEECKFQQIRSLLGHEHIVSAVKIWQKNNDVHIASCSRDQTVKIWDFHNGWSLKTFQPHSQWVRSIDVLGDYIISGSHDTTLRLTHWPSGNGLSVGTGHEFPIEKVKFIHFIEDSPEIRFRTPSTDRYKNWGMQYCVSASRDRTIKIWEIPLPTLMAHRAPIPNPTDSNFRCVLTLKGHLSWVRDISIRGQYLFSCADDKSVRCWDLNTGQCLHVWEKLHTGFVNCLDLDVDFDSNVTPRQMMVTGGLDCKSNVFMR
notes: Lis1 ortholog Pac1 (PAC1), S. cerevisiae; also called dimeric Lis1; intact Lis1; source: S. cerevisiae, expressed from the genomic locus, purified (Ni-NTA, IgG sepharose, TEV cleavage)
stoichiometry N: 2
